The test system of this data set is MS2 coat protein. In words: apparent KD of MS2 coat protein; designed switch direction (-1 OFF switch, 1 ON switch): -1; higher = weaker reporter binding. A digest of the protocol: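 The apparent KD reported per design is the median over clusters of curve fits to normalised cluster fluorescence. The RNA switches were transcribed on Illumina chips by stalled E. coli RNA polymerase. SNAP-549-labelled MS2 coat protein was titrated from 0.7 or 1.5 nM, doubling up to 3 µM, in Tris-HCl pH 7.5 buffer containing KCl, MgCl2, BSA, DTT, tRNA and Tween-20, with no input, 200 uM small-molecule ligand, or an oligonucleotide input.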

[1] abbreviates: input ligand: microRNA oligo, concentration not stated.
Where [2] appears, read: Eterna round: R95, input ligand: microRNA oligo, concentration not stated.

With “AACAGCACAGGAUAUACAUGAGGAUCACCCAUGUGAGAAUUAAGUAGAUUGCCACAGAGUAGAAGGGUGCUGGA [Ruby 99] (Eterna round: R96, puzzle: Exclusion 3)”, the “apparent KD of MS2 coat protein” value came to 88.9 nM (input ligand: FMN 200 uM), 36.4 nM under setting [1] and 38.9 nM (input ligand: none).

For the sequence “AACAGCAGCUUUUUGCGCAACAUGAGGAUCACCCAUGUUGCAUGAGCAGCGUCGGGAGGUACCGGUUUCGUUUUGUC [Eternabot (L1) Solution 45] (Eterna round: R97, puzzle: Sensor, turn-off variant 1)”, the “apparent KD of MS2 coat protein” value was found to be 18.7 nM (input ligand: FMN 200 uM) and 18.1 nM (input ligand: none).

“AACAGUCUAGAGGAUAUGCUGGAUAAAUAUCUGGCAGAAGGCUGGACAUGAGGAUCACCCAUGUAAAUACUACC [Omei Ex6 A1b] (Eterna round: R97, puzzle: Exclusion 6)”: the “apparent KD of MS2 coat protein” value (input ligand: FMN 200 uM) amounted to 99.6 nM and the “apparent KD of MS2 coat protein” value (input ligand: none) came out at 38.6 nM.

With “AACAGUCUAGAGGAUAUGCUGGAUUAAUAUCUUGCAGAAGGCUGGACAUGAGGAUCACCCAUGUAAAUACUACC [Omei Ex6 A12] (Eterna round: R97, puzzle: Exclusion 6)”, the “apparent KD of MS2 coat protein” value came to 94 nM (input ligand: FMN 200 uM) and 31.9 nM (input ligand: none).

Turning to “AACAGUCUAGAGGAUAUGUUGGAUUAAUAUCUGGCAGAAGGCUGGACAUGAGGAUCACCCAUGUAAAUACUACC [Omei Ex6 A14] (Eterna round: R97, puzzle: Exclusion 6)”, the “apparent KD of MS2 coat protein” value (input ligand: FMN 200 uM) worked out at 98.7 nM and the “apparent KD of MS2 coat protein” value (input ligand: none) was determined as 34.4 nM.

Turning to “AACAUACAUGAGGAUCACCCAUGUGAGGAUAUGAGAGUCAACUCGAGAGAGUUGAUUCUCAGAAGGCACAUAAA [JR_Ex1_Sub065] (Eterna round: R97, puzzle: Exclusion 1)”, the “apparent KD of MS2 coat protein” value reads like this: (input ligand: FMN 200 uM) 226 nM; (input ligand: none) 67.5 nM.

As for “AACAUGAGGAUCACCCAUGUGAACCUCCUAAAAUACGACCGGUAGGAUAUACGAAAGAGCCGGAAGUAGAAGGACCGGUUAAAA [Esusale] (Eterna round: R96, puzzle: Exclusion NG 3)”, the “apparent KD of MS2 coat protein” value by setting is: (input ligand: FMN 200 uM) 460 nM; under setting [1], 96.1 nM; (input ligand: none) 158 nM.

Turning to “AACAUGGCAGAGGAUAUAGGACGCUGGCAUAAACUAGAAGGCUGCACAUGAGGAUCACCCAUGUGUUCCAAAAC [Atquisuson] (Eterna round: R97, puzzle: Exclusion 6)”, the “apparent KD of MS2 coat protein” value is 38.6 nM (input ligand: FMN 200 uM) and 22.6 nM (input ligand: none).

As to “AACAUGUCAGGAUAUGUGACAUGGCUCUUCGGAGCAAGAUCACAGAAGGGACAUGAGGAUCACCCAUGUCGAUC [Ex4-3: 28] (puzzle: Exclusion 4)”, under setting [2], the “apparent KD of MS2 coat protein” value was 32.7 nM.

For “AACAUGUGAGGAUAUGUCACAUGGCUCUUCGGAGCAAGAUGACAGAAGGCACAUGAGGAUCACCCAUGUGCAUC [Ex4-3: 27] (puzzle: Exclusion 4)”, under setting [2], the “apparent KD of MS2 coat protein” value worked out at 11.6 nM.

“AACCAGCGAGGAUAUGCUUGCGCGUGUUCUAGUUGAAAUCGACUUGAGGAUCACCCAAGUAGAAGGCGCAGCCG [EX2 #48] (Eterna round: R97, puzzle: Exclusion 2)”: the “apparent KD of MS2 coat protein” value came to 83.9 nM (input ligand: FMN 200 uM) and 43.9 nM (input ligand: none).

In the case of “AACCAGCGAGGAUAUGCUUGCGCGUGUUCUGGUUAUAAUCGACUUGAGGAUCACCCAAGUAGAAGGCGCUGCCG [EX2 #52] (Eterna round: R97, puzzle: Exclusion 2)”, the “apparent KD of MS2 coat protein” value runs as follows: (input ligand: FMN 200 uM) 179 nM; (input ligand: none) 64.2 nM.

Take “AACCAGCGAGGAUAUUGUCGGUACAACAUGAGGAUCACCCAUGUCACGUGAUCUUCCCAACAAGAAGGUGCACUAC [Axeedesza] (Eterna round: R97, puzzle: Exclusion 5)”: the “apparent KD of MS2 coat protein” value worked out at 324 nM (input ligand: FMN 200 uM) and 272 nM (input ligand: none).

Take “AACCAGCGAGGAUAUUGUUGGUAAAACAUGAGGAUCACCCAUGUCACGUGAUCUUCCCAACAAGAAGGUGCACUAA [Isrierin] (Eterna round: R97, puzzle: Exclusion 5)”: the “apparent KD of MS2 coat protein” value runs as follows: (input ligand: FMN 200 uM) 183 nM; (input ligand: none) 46.7 nM.

Source of the values: the supplement of paper PMC9170038.
